Reference: article PMC3527552

B1: OATP1B1: N134/432Q (protein)
parent chain: MDQNQHLNKTAEAQPSENKKTRYCNGLKMFLAALSLSFIAKTLGAIIMKSSIIHIERRFEISSSLVGFIDGSFEIGNLLVIVFVSYFGSKLHRPKLIGIGCFIMGIGGVLTALPHFFMGYYRYSKETNINSSENSTSTLSTCLINQILSLNRASPEIVGKGCLKESGSYMWIYVFMGNMLRGIGETPIVPLGLSYIDDFAKEGHSSLYLGILNAIAMIGPIIGFTLGSLFSKMYVDIGYVDLSTIRITPTDSRWVGAWWLNFLVSGLFSIISSIPFFFLPQTPNKPQKERKASLSLHVLETNDEKDQTANLTNQGKNITKNVTGFFQSFKSILTNPLYVMFVLLTLLQVSSYIGAFTYVFKYVEQQYGQPSSKANILLGVITIPIFASGMFLGGYIIKKFKLNTVGIAKFSCFTAVMSLSFYLLYFFILCENKSVAGLTMTYDGNNPVTSHRDVPLSYCNSDCNCDESQWEPVCGNNGITYISPCLAGCKSSSGNKKPIVFYNCSCLEVTGLQNRNYSAHLGECPRDDACTRKFYFFVAIQVLNLFFSALGGTSHVMLIVKIVQPELKSLALGFHSMVIRALGGILAPIYFGALIDTTCIKWSTNNCGTRGSCRTYNSTSFSRVYLGLSSMLRVSSLVLYIILIYAMKKKYQEKDINASENGSVMDEANLESLNKNKHFVPSAGADSETHC
B2: OATP1B1: N503Q (protein)
parent chain: B1 parent chain
B3: OATP1B1: N134/503Q (protein)
parent chain: B1 parent chain
B4: OATP1B1: N134/516Q (protein)
parent chain: B1 parent chain
B5: OATP1B1: N134/617Q (protein)
parent chain: B1 parent chain
B6: OATP1B1: N516Q (protein)
parent chain: B1 parent chain
B7: OATP1B1: N134Q (protein)
parent chain: B1 parent chain
B8: OATP1B1: N134/503/516Q (protein)
parent chain: B1 parent chain
B9: OATP1B1: tunicamycin 0.5 μg/ml, 42 h (protein)
parent chain: B1 parent chain

assay: 0.1 μM E-3-S uptake, 2 min, HEK293; settings: glycan lost; control: wild type

Protein | other: transport activity
B1 | no change
B2 | no change
B3 | no change
B4 | no change
B5 | no change
B6 | no change
B7 | no change

assay: confocal immunofluorescence, colocalisation with calnexin; settings: glycan lost; control: wild type

Protein | localisation_or_trafficking
B8 | changes

assay: cell surface biotinylation, anti-HA Western blot; settings: glycan lost; control: wild type

Protein | expression_or_secretion, percent_of_wt
B8 | decreases
B1 | no change
B2 | no change
B3 | no change
B4 | no change
B5 | no change
B6 | no change
B7 | no change

assay: total cell lysate anti-HA Western blot; settings: glycan lost; control: wild type

Protein | expression_or_secretion
B8 | decreases

assay: cell lysate anti-HA Western blot; settings: glycan lost; control: untreated

Protein | expression_or_secretion
B9 | decreases
